Test results: paper PMC11621151

Key:
Test in all cases: SPR
[1] = target: rabbit neonatal Fc receptor (FcRn) (rabbit)
[2] = target: mouse neonatal Fc receptor (FcRn) (mouse) (UniProt Q61559)
[3] = target: rat neonatal Fc receptor (FcRn) (rat) (UniProt P13599)
[4] = target: monkey neonatal Fc receptor (FcRn) (monkey) (UniProt Q8SPV9)
[5] = target: human neonatal Fc receptor (FcRn) (human) (UniProt P55899)

## Efgartigimod (domain or fragment)
[1]
  Kd: 310 nM
[2]
  Kd: 0.63 nM
[3]
  Kd: 1.89 nM
[4]
  Kd: 14.5 nM
[5]
  Kd: 8.56 nM
